Measurements from patent US20210285024A1 (CENTRE NATIONAL DE LA RECHERCHE SCIENTIFIQUE CNRS, published 2021).

Biological target: T1, recombinant human Vasohibin-2 (VASH2) (Homo sapiens, UniProt Q86V25 1-355, limits assumed)
T1 construct: Produced in E. coli (pET-28a(+)/pGEX) and purified by IMAC and ion exchange
Experiment: recombinant complex purified and used as detyrosinase; no direct binding assay described

T1 sequence (Q86V25 whole entry): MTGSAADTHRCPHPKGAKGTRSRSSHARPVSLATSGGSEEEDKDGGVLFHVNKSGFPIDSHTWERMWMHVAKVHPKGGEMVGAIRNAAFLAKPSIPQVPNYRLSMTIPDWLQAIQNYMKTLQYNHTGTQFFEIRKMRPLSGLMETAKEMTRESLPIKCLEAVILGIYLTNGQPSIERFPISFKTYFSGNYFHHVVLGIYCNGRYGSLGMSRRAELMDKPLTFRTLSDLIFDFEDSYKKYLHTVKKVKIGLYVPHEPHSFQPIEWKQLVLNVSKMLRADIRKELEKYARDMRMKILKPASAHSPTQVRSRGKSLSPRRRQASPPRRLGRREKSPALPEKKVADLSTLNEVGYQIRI

binding result: binds
B1: Small vasohibin-binding protein (SVBP) (other)
chain: MDPPARKEKTKVKESVSRVEKAKQKSAQQELKQRQRAEIYALNRVMTELEQQQFDEFCKQMQPPGE
notes: Coexpressed with VASH1 or VASH2
